Measurements reported in patent US20190352426A1, “PLAZOMICIN ANTIBODIES AND METHODS OF USE” (Achaogen, Inc., priority 2016, published 2019).
Where a chain is given by its changes, count along the chain named. Blank lines part the entries; values can stand above or below the molecule they belong to.

Experiments:
Assay type in all cases: binding
[1] = competitive ELISA on BSA-bromo-plazomicin coated plates, free plazomicin; details: free plazomicin 0.013-270 μg/ml incubated with antibody at 0.05 nM, then added to BSA-bromo-plazomicin-coated ELISA plates
Description: (§1) The purified antibodies were then analyzed for binding to BSA-plazomicin by ELISA (the tested concentrations of antibodies ranged from 0.0001 nM to 100 nM). (FIG. 1A) and competitive ELISA (FIG. 1B) on BSA-bromo-plazomicin coated ELISA plates. For competitive ELISAs, free aminoglycosides (plazomicin, gentamicin, amikacin, and sisomicin) at concentrations; 270 μg/ml, 90 μg/ml 30 μg/ml, 10 μg/ml, 3.3 μg/ml, 1.1 μg/ml, 0.4 μg/ml, 0.12 μg/ml, 0.04 μg/ml and 0.013 μg/ml were incubated with one of 10 purified monoclonal antibodies derived from the cell cultures described above; MC329, MC330, MC331, MC332, MC334, […], […], MC337, MC339, MC340 at 0.05 nM concentration (FIG. 1B). The antibody/aminoglycoside solutions were then added to BSA-bromo-plazomicin-coated ELISA plates. Plates were washed to remove unbound antibody, and IC50 values (μg/mL) were determined for each aminoglycoside and are shown below in Table 5.

[2] = competitive ELISA on BSA-bromo-plazomicin coated plates, free sisomicin; details: free sisomicin 0.013-270 μg/ml incubated with antibody at 0.05 nM, then added to BSA-bromo-plazomicin-coated ELISA plates
Description: as §1

[3] = competitive ELISA on BSA-bromo-plazomicin coated plates, free gentamicin; details: free gentamicin 0.013-270 μg/ml incubated with antibody at 0.05 nM, then added to BSA-bromo-plazomicin-coated ELISA plates
Description: as §1

B1: MC334: murine monoclonal anti-plazomicin antibody; heavy chain variable SEQ ID NO 58, light chain variable SEQ ID NO 62 (antibody, listed as Mus musculus, V domains shown)
VH: QVQLQQSGAELMKPGASVKISCKATGYKFSRYWIEWVKESPGHGLEWIGEIFPGSDSTDYNEKFKGKATLTADSSSNTAYMQLSSLTSEDSAVYYCARDGGGLDEFAYWGQGTPVIVSA
VL: DVVVTQIPLSLSVSFGDQVSISCRSSQSLTNSYGYTYLSWYLHKPGQSPQLLIYGISNRFSGVPDRFSGSGSGTDFTLKISTIKPEDLGMYYCLQGTHQPYTFGGGTKLEIR
Antibiotic IC50 Values for Aminoglycosides: Plazomicin [1]: 0.72 µg/mL

B2: MC332: murine monoclonal anti-plazomicin antibody; heavy chain variable SEQ ID NO 50, light chain variable SEQ ID NO 54 (antibody, listed as Mus musculus, V domains shown)
VH: B1 VH
VL: B1 VL with I7N
Antibiotic IC50 Values for Aminoglycosides: Plazomicin [1]: 0.94 µg/mL

B3: MC335: murine monoclonal anti-plazomicin antibody; heavy chain variable SEQ ID NO 66, light chain variable SEQ ID NO 70 (antibody, listed as Mus musculus, V domains shown)
VH: AGQLKESGPGLVKPSQSLSLTCTVTGSSITSDYAWNWIRQFPGNKLEWMGYISQSGSTSYNPSLKSRISITRDTSKNQFFLQLNSVTTEDTATYYCTGNSYTMDYWGQGTSVTVSS
VL: DIVMTQSPKFLLVSAGDRVTITCKASQSVSNDVAWYQQKPGQSPKLLISYASNRYTGVPDRFTGSGYGTDFTFTITTVQAEDLAVYFCQQDYSSPWTFGGGTKLEIK
Antibiotic IC50 Values for Aminoglycosides: Plazomicin [1]: 0.59 µg/mL
Antibiotic IC50 Values for Aminoglycosides: Sisomicin [2]: 69.0 µg/mL

B6: MC336: murine monoclonal anti-plazomicin antibody; heavy chain variable SEQ ID NO 74, light chain variable SEQ ID NO 78 (antibody, listed as Mus musculus, V domains shown)
VH: B3 VH with A1Q, G2M, K5Q, S27D, Q54Y, T71S, T88I
VL: B3 VL with D1S, S7T, K45N, T76S, S93I
Antibiotic IC50 Values for Aminoglycosides: Plazomicin [1]: 0.25 µg/mL
Antibiotic IC50 Values for Aminoglycosides: Sisomicin [2]: 37.6 µg/mL
Antibiotic IC50 Values for Aminoglycosides: Gentamicin [3]: ~106.1 µg/mL

The next lines start with the values.

Antibiotic IC50 Values for Aminoglycosides: Plazomicin [1]: 19.0 µg/mL
Antibiotic IC50 Values for Aminoglycosides: Sisomicin [2]: 153 µg/mL
B4: MC340: murine monoclonal anti-plazomicin antibody; heavy chain variable SEQ ID NO 98, light chain variable SEQ ID NO 102 (antibody, listed as Mus musculus, V domains shown)
VH: QVTLKESGGGLVQPGGSMKISCVVSGLTFRNYWMSWVRQSPEKGLEWVAEIRLKSDNYATHYAESVKGKFTISRDDSKSRLYLQMNSLRAEDTGIYYCTVYGKDFDYWGQGTTLTVSS
VL: B3 VL with I2V, S7T, T76S

Antibiotic IC50 Values for Aminoglycosides: Plazomicin [1]: 0.43 µg/mL
Antibiotic IC50 Values for Aminoglycosides: Sisomicin [2]: 83.0 µg/mL
Antibiotic IC50 Values for Aminoglycosides: Gentamicin [3]: 107.0 µg/mL
B5: MC329: murine monoclonal anti-plazomicin antibody from hybridoma MC329; heavy chain variable SEQ ID NO 22, light chain SEQ ID NO 26, 30 (antibody, listed as Mus musculus, V domains shown)
VH: SDVQLQESGPGLVKPSQSLSLTCTVTGYSITTNYAWNWIRQFPGHKLEWMGYITSSGRTSYNPPLKSRISITRDTSRSQFFLRLNSVTTEDTATYFCTHTTAYLDYWGQGTTLTVSS
VL 1: B3 VL with D1S, S7T, T72A, T76N, V85F, W96Y
VL 2: DIKMTQSPSSMYASLGERVTITCKASQDIKSYLSWYQQIPWKSPKTLIYYATSLADGVPSRFSGSGSGQDYSLTISSLESDDTATYYCLQHGESPLTFGAGTKLELK

Antibiotic IC50 Values for Aminoglycosides: Plazomicin [1]: 0.12 µg/mL
Antibiotic IC50 Values for Aminoglycosides: Sisomicin [2]: 24.4 µg/mL
Antibiotic IC50 Values for Aminoglycosides: Gentamicin [3]: ~101.7 µg/mL
B7: MC339: murine monoclonal anti-plazomicin antibody; heavy chain variable SEQ ID NO 90, light chain variable SEQ ID NO 94 (antibody, listed as Mus musculus, V domains shown)
VH: QVQLVQSGPELVKPGASVKVSCKASGFSFTDYNMYWVKQSHGKSLEWIGYIDPYNGGTSYNQKFKGKATLTFDKSSSTAFMHLNSLTSEDSAVYYCASAGNYDDYWGQGTTLTVSS
VL: B3 VL with S7T, K45T, S49Y, T76S, S93T, W96Y

Antibiotic IC50 Values for Aminoglycosides: Plazomicin [1]: 0.02 µg/mL
Antibiotic IC50 Values for Aminoglycosides: Sisomicin [2]: 9.9 µg/mL
Antibiotic IC50 Values for Aminoglycosides: Gentamicin [3]: 92.0 µg/mL
B8: MC330: murine monoclonal anti-plazomicin antibody; heavy chain variable SEQ ID NO 34, light chain variable SEQ ID NO 38 (antibody, listed as Mus musculus, V domains shown)
VH: SDVQLQESGPGLVTPSQSLSLTCTVTGYSITSAYAWNWIRQFPGNKLEWLGYINSSGSTSYHPSLKGRISITRDTSKNQFFLQLNSVTTEDTATYYCTHTTSYFDYWGQGTTLTVSS
VL: B3 VL with D1S, S7T, L12I, T74A, W96Y, L104V

Antibiotic IC50 Values for Aminoglycosides: Plazomicin [1]: 0.06 µg/mL
Antibiotic IC50 Values for Aminoglycosides: Sisomicin [2]: 16.1 µg/mL
Antibiotic IC50 Values for Aminoglycosides: Gentamicin [3]: 107.6 µg/mL
B9: MC337: murine monoclonal anti-plazomicin antibody; heavy chain variable SEQ ID NO 82, light chain variable SEQ ID NO 86 (antibody, listed as Mus musculus, V domains shown)
VH: QVQLQQPGPELVKPGASVKMSCKASGYTFTSYVIHWVKQKPGQGLEWIGYINPFNDGTKYNEKFKGKATLTSDKSSSTAYMELSSLTSEDSAVYYCEGVGSSGSDYWGQGTTLTVSS
VL: B3 VL with S7T, S30R, T76S, V85I, W96Y

Antibiotic IC50 Values for Aminoglycosides: Plazomicin [1]: 0.43 µg/mL
Antibiotic IC50 Values for Aminoglycosides: Sisomicin [2]: 83.0 µg/mL
Antibiotic IC50 Values for Aminoglycosides: Gentamicin [3]: 214.4 µg/mL
B10: MC331: murine monoclonal anti-plazomicin antibody; heavy chain variable SEQ ID NO 42, light chain variable SEQ ID NO 46 (antibody, listed as Mus musculus, V domains shown)
VH: QVQLQQSGAELAKPGASVKMSCKASGNTFTSYWMHWIKQRPGQGLEWIGYIDPSTGYTEYNQKFKDRATLTADKSSNTAYMQLNSLTSEDSAVYYCTKSGKWDDYWGQGTTLTVSS
VL: B3 VL with D1S, S7T, S30T, S49C, T76S, Y92H, S93T, W96F
